Reference: patent US20200087373A1 (UNIVERSITY OF COPENHAGEN, published 2020)
Ends that are not written are not given here. * marks the point of attachment. C16 diacid = O=C(O)CCCCCCCCCCCCCCC(=O)*

B1: AT303 [hGIP(3-30)NH2[I12K]-C16diacid/12] (peptide)
peptide: EGTFISDYSK(C16 diacid)AMDKIHQQDFVNWLLAQK-NH2
modifications: N-terminus assumed
SMILES: CC[C@H](C)[C@H](NC(=O)[C@H](CCCCN)NC(=O)[C@H](CC(=O)O)NC(=O)[C@H](CCSC)NC(=O)[C@H](C)NC(=O)[C@H](CCCCNC(=O)CCCCCCCCCCCCCCC(=O)O)NC(=O)[C@H](CO)NC(=O)[C@H](Cc1ccc(O)cc1)NC(=O)[C@H](CC(=O)O)NC(=O)[C@H](CO)NC(=O)[C@@H](NC(=O)[C@H](Cc1ccccc1)NC(=O)[C@@H](NC(=O)CNC(=O)[C@@H](N)CCC(=O)O)[C@@H](C)O)[C@@H](C)CC)C(=O)N[C@@H](Cc1c[nH]cn1)C(=O)N[C@@H](CCC(N)=O)C(=O)N[C@@H](CCC(N)=O)C(=O)N[C@@H](CC(=O)O)C(=O)N[C@@H](Cc1ccccc1)C(=O)N[C@H](C(=O)N[C@@H](CC(N)=O)C(=O)N[C@@H](Cc1c[nH]c2ccccc12)C(=O)N[C@@H](CC(C)C)C(=O)N[C@@H](CC(C)C)C(=O)N[C@@H](C)C(=O)N[C@@H](CCC(N)=O)C(=O)N[C@@H](CCCCN)C(N)=O)C(C)C
B2: AT370 [hGIP(3-30)NH2-C16diacid/16] (peptide)
peptide: EGTFISDYSIAMDK(C16 diacid)IHQQDFVNWLLAQK-NH2
B3: AT306 [hGIP(3-30)NH2[D15K]-C16diacid/15] (peptide)
peptide: EGTFISDYSIAMK(C16 diacid)KIHQQDFVNWLLAQK-NH2
modifications: N-terminus assumed
SMILES: CC[C@H](C)[C@H](NC(=O)[C@H](CO)NC(=O)[C@H](Cc1ccc(O)cc1)NC(=O)[C@H](CC(=O)O)NC(=O)[C@H](CO)NC(=O)[C@@H](NC(=O)[C@H](Cc1ccccc1)NC(=O)[C@@H](NC(=O)CNC(=O)[C@@H](N)CCC(=O)O)[C@@H](C)O)[C@@H](C)CC)C(=O)N[C@@H](C)C(=O)N[C@@H](CCSC)C(=O)N[C@@H](CCCCNC(=O)CCCCCCCCCCCCCCC(=O)O)C(=O)N[C@@H](CCCCN)C(=O)N[C@H](C(=O)N[C@@H](Cc1c[nH]cn1)C(=O)N[C@@H](CCC(N)=O)C(=O)N[C@@H](CCC(N)=O)C(=O)N[C@@H](CC(=O)O)C(=O)N[C@@H](Cc1ccccc1)C(=O)N[C@H](C(=O)N[C@@H](CC(N)=O)C(=O)N[C@@H](Cc1c[nH]c2ccccc12)C(=O)N[C@@H](CC(C)C)C(=O)N[C@@H](CC(C)C)C(=O)N[C@@H](C)C(=O)N[C@@H](CCC(N)=O)C(=O)N[C@@H](CCCCN)C(N)=O)C(C)C)[C@@H](C)CC
B4: AT304 [hGIP(3-30)NH2[A13K]-C16diacid/13] (peptide)
peptide: EGTFISDYSIK(C16 diacid)MDKIHQQDFVNWLLAQK-NH2
modifications: N-terminus assumed
SMILES: CC[C@H](C)[C@H](NC(=O)[C@H](CCCCN)NC(=O)[C@H](CC(=O)O)NC(=O)[C@H](CCSC)NC(=O)[C@H](CCCCNC(=O)CCCCCCCCCCCCCCC(=O)O)NC(=O)[C@@H](NC(=O)[C@H](CO)NC(=O)[C@H](Cc1ccc(O)cc1)NC(=O)[C@H](CC(=O)O)NC(=O)[C@H](CO)NC(=O)[C@@H](NC(=O)[C@H](Cc1ccccc1)NC(=O)[C@@H](NC(=O)CNC(=O)[C@@H](N)CCC(=O)O)[C@@H](C)O)[C@@H](C)CC)[C@@H](C)CC)C(=O)N[C@@H](Cc1c[nH]cn1)C(=O)N[C@@H](CCC(N)=O)C(=O)N[C@@H](CCC(N)=O)C(=O)N[C@@H](CC(=O)O)C(=O)N[C@@H](Cc1ccccc1)C(=O)N[C@H](C(=O)N[C@@H](CC(N)=O)C(=O)N[C@@H](Cc1c[nH]c2ccccc12)C(=O)N[C@@H](CC(C)C)C(=O)N[C@@H](CC(C)C)C(=O)N[C@@H](C)C(=O)N[C@@H](CCC(N)=O)C(=O)N[C@@H](CCCCN)C(N)=O)C(C)C
B5: AT308 [hGIP(3-30)NH2[Q19K]-C16diacid/19] (peptide)
peptide: EGTFISDYSIAMDKIHK(C16 diacid)QDFVNWLLAQK-NH2
modifications: N-terminus assumed
SMILES: CC[C@H](C)[C@H](NC(=O)[C@H](CO)NC(=O)[C@H](Cc1ccc(O)cc1)NC(=O)[C@H](CC(=O)O)NC(=O)[C@H](CO)NC(=O)[C@@H](NC(=O)[C@H](Cc1ccccc1)NC(=O)[C@@H](NC(=O)CNC(=O)[C@@H](N)CCC(=O)O)[C@@H](C)O)[C@@H](C)CC)C(=O)N[C@@H](C)C(=O)N[C@@H](CCSC)C(=O)N[C@@H](CC(=O)O)C(=O)N[C@@H](CCCCN)C(=O)N[C@H](C(=O)N[C@@H](Cc1c[nH]cn1)C(=O)N[C@@H](CCCCNC(=O)CCCCCCCCCCCCCCC(=O)O)C(=O)N[C@@H](CCC(N)=O)C(=O)N[C@@H](CC(=O)O)C(=O)N[C@@H](Cc1ccccc1)C(=O)N[C@H](C(=O)N[C@@H](CC(N)=O)C(=O)N[C@@H](Cc1c[nH]c2ccccc12)C(=O)N[C@@H](CC(C)C)C(=O)N[C@@H](CC(C)C)C(=O)N[C@@H](C)C(=O)N[C@@H](CCC(N)=O)C(=O)N[C@@H](CCCCN)C(N)=O)C(C)C)[C@@H](C)CC
B6: AT305 [hGIP(3-30)NH2[M14K]-C16diacid/14] (peptide)
peptide: EGTFISDYSIAK(C16 diacid)DKIHQQDFVNWLLAQK-NH2
modifications: N-terminus assumed
SMILES: CC[C@H](C)[C@H](NC(=O)[C@H](CO)NC(=O)[C@H](Cc1ccc(O)cc1)NC(=O)[C@H](CC(=O)O)NC(=O)[C@H](CO)NC(=O)[C@@H](NC(=O)[C@H](Cc1ccccc1)NC(=O)[C@@H](NC(=O)CNC(=O)[C@@H](N)CCC(=O)O)[C@@H](C)O)[C@@H](C)CC)C(=O)N[C@@H](C)C(=O)N[C@@H](CCCCNC(=O)CCCCCCCCCCCCCCC(=O)O)C(=O)N[C@@H](CC(=O)O)C(=O)N[C@@H](CCCCN)C(=O)N[C@H](C(=O)N[C@@H](Cc1c[nH]cn1)C(=O)N[C@@H](CCC(N)=O)C(=O)N[C@@H](CCC(N)=O)C(=O)N[C@@H](CC(=O)O)C(=O)N[C@@H](Cc1ccccc1)C(=O)N[C@H](C(=O)N[C@@H](CC(N)=O)C(=O)N[C@@H](Cc1c[nH]c2ccccc12)C(=O)N[C@@H](CC(C)C)C(=O)N[C@@H](CC(C)C)C(=O)N[C@@H](C)C(=O)N[C@@H](CCC(N)=O)C(=O)N[C@@H](CCCCN)C(N)=O)C(C)C)[C@@H](C)CC
B7: AT302 [hGIP(3-30)NH2[S11K]-C16diacid/11] (peptide)
peptide: EGTFISDYK(C16 diacid)IAMDKIHQQDFVNWLLAQK-NH2
modifications: N-terminus assumed
SMILES: CC[C@H](C)[C@H](NC(=O)[C@H](CCCCNC(=O)CCCCCCCCCCCCCCC(=O)O)NC(=O)[C@H](Cc1ccc(O)cc1)NC(=O)[C@H](CC(=O)O)NC(=O)[C@H](CO)NC(=O)[C@@H](NC(=O)[C@H](Cc1ccccc1)NC(=O)[C@@H](NC(=O)CNC(=O)[C@@H](N)CCC(=O)O)[C@@H](C)O)[C@@H](C)CC)C(=O)N[C@@H](C)C(=O)N[C@@H](CCSC)C(=O)N[C@@H](CC(=O)O)C(=O)N[C@@H](CCCCN)C(=O)N[C@H](C(=O)N[C@@H](Cc1c[nH]cn1)C(=O)N[C@@H](CCC(N)=O)C(=O)N[C@@H](CCC(N)=O)C(=O)N[C@@H](CC(=O)O)C(=O)N[C@@H](Cc1ccccc1)C(=O)N[C@H](C(=O)N[C@@H](CC(N)=O)C(=O)N[C@@H](Cc1c[nH]c2ccccc12)C(=O)N[C@@H](CC(C)C)C(=O)N[C@@H](CC(C)C)C(=O)N[C@@H](C)C(=O)N[C@@H](CCC(N)=O)C(=O)N[C@@H](CCCCN)C(N)=O)C(C)C)[C@@H](C)CC
B8: AT307 [hGIP(3-30)NH2[I17K]-C16diacid/17] (peptide)
peptide: EGTFISDYSIAMDKK(C16 diacid)HQQDFVNWLLAQK-NH2
modifications: N-terminus assumed
SMILES: CC[C@H](C)[C@H](NC(=O)[C@H](CO)NC(=O)[C@H](Cc1ccc(O)cc1)NC(=O)[C@H](CC(=O)O)NC(=O)[C@H](CO)NC(=O)[C@@H](NC(=O)[C@H](Cc1ccccc1)NC(=O)[C@@H](NC(=O)CNC(=O)[C@@H](N)CCC(=O)O)[C@@H](C)O)[C@@H](C)CC)C(=O)N[C@@H](C)C(=O)N[C@@H](CCSC)C(=O)N[C@@H](CC(=O)O)C(=O)N[C@@H](CCCCN)C(=O)N[C@@H](CCCCNC(=O)CCCCCCCCCCCCCCC(=O)O)C(=O)N[C@@H](Cc1c[nH]cn1)C(=O)N[C@@H](CCC(N)=O)C(=O)N[C@@H](CCC(N)=O)C(=O)N[C@@H](CC(=O)O)C(=O)N[C@@H](Cc1ccccc1)C(=O)N[C@H](C(=O)N[C@@H](CC(N)=O)C(=O)N[C@@H](Cc1c[nH]c2ccccc12)C(=O)N[C@@H](CC(C)C)C(=O)N[C@@H](CC(C)C)C(=O)N[C@@H](C)C(=O)N[C@@H](CCC(N)=O)C(=O)N[C@@H](CCCCN)C(N)=O)C(C)C

Each binder was assayed against T1, human GIP receptor (human, UniProt P48546 22-466) (assay: cell-based or functional assay).
T1 sequence (looked up): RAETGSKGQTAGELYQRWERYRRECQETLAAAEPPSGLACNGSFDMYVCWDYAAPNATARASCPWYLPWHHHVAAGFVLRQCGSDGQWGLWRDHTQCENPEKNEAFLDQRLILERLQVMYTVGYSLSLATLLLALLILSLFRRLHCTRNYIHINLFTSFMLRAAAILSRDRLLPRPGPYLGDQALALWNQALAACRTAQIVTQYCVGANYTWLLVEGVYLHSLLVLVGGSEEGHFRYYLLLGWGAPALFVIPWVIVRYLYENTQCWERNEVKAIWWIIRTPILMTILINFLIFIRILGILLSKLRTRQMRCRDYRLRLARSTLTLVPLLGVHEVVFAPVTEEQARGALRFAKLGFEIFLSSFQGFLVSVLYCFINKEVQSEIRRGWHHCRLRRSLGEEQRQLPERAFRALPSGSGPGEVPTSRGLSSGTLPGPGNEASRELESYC

Row | Binder | cAMP agonism, EC50 (log) [log M] | cAMP agonism, Emax [%] | cAMP agonism, nM (EC50) [nM] | cAMP antagonism, log (IC50) [log M] | cAMP antagonism, nM (IC50) [nM]
1 | B1 | -7.6 | 24.2 | 28 | -7 | 90
2 | B2 |  |  |  | -7.6 | 24.9
3 | B3 | -7.9 | 6.6 | 13 | -7.3 | 53
4 | B4 |  |  |  | -6.7 | 199
5 | B5 | -7.5 | 7.9 | 34 | -6.9 | 132
6 | B6 | -8.1 | 12 | 8 | -6.8 | 166
7 | B7 |  |  |  | -7.2 | 69
8 | B8 | -7.9 | 4.9 | 14 | -7 | 93
